Data set [1] has as its target Acidovorax facilis CCTCC NO: M 209044 nitrilase AcN-F168V (SEQ ID No. 2) mutant G180D/A205C, SEQ ID No. 10 (Acidovorax facilis, UniProt Q1W2L4). The data set is described as follows: Kinetic parameters of the nitrilase double mutant G180D/A205C. The format is biochemical. The note with it: pH 7.0, 20 mM phosphate buffer, 45° C. The method, then:
(§1) The kinetic parameters of the purified protein in example 3 were determined, using 1-cyanocyclohexylacetonitrile as the substrate and the pure enzyme solutions of AcN-F168V, G180D, A205C, G180F, and G180D/A205C as the catalyst.
(§2) 10 mL of the reaction system was as follows: the purified enzyme solution (165 U/g) was diluted 10 times with a pH 7.0, 20 mM phosphate buffer and the final concentration of the purified nitrilase was 0.2 mg/mL. The resulting enzyme solution was put into a reaction container, added with the substrate at final concentrations of 6.75-40.49 mM (6.75, 13.50, 20.24, 26.99, 33.74 and 40.49 mM, respectively) and added with a pH 7.0, 20 mM phosphate buffer as the reaction medium up to 10 mL, the reaction solution was reacted at 45° C. and 600 rpm for 5 min, 500 μL of the sample was taken out, 500 μL of 2 M HCl was added to terminate the reaction, and the concentration of 1-cyanocyclohexyl acetic acid in the reaction solution was determined by HPLC (The detection and analysis conditions are the same as that in example 4).
(§3) Collected test data was used to conduct nonlinear fitting by Origin, thereby obtaining the Km value and Kcat value of the nitrilase E. coli BL21 (DE3)/pET-28b (+)-AcN-F168V and its combinatorial mutants E. coli BL21 (DE3)/pET-28b (+)-AcN-G180D, E. coli BL21 (DE3)/pET-28b (+)-AcN-G180F, E. coli BL21 (DE3)/pET-28b (+)-AcN-A205C and E. coli BL21 (DE3)/pET-28b (+)-AcN-G180D/A205C as shown in table 2.

Data set [2] relates to N#CCC1(C#N)CCCCC1. The experiment in a line: Kinetic parameters of the nitrilase mutant A205C. The data set is classed as biochemical, Acidovorax facilis CCTCC NO: M 209044. The note with it: other: A205C, pH 7.0, 20 mM phosphate buffer, 45° C., 6.75-40.49 mM substrate. As to the method:
as §1, §2, §3

The test system of data set [3] is N#CCC1(C#N)CCCCC1. The experiment in a line: Kinetic parameters of the nitrilase mutant G180D. The data set is classed as biochemical, Acidovorax facilis CCTCC NO: M 209044. The note with it: other: G180D, pH 7.0, 20 mM phosphate buffer, 45° C., 6.75-40.49 mM substrate. As to the method: as §1, §2, §3
The test system of data set [4] is N#CCC1(C#N)CCCCC1. The experiment in a line: Kinetic parameters of the nitrilase mutant G180F. The data set is classed as biochemical, Acidovorax facilis CCTCC NO: M 209044. The note with it: other: G180F, pH 7.0, 20 mM phosphate buffer, 45° C., 6.75-40.49 mM substrate. As to the method:
as §1, §2, §3

The test system of data set [5] is N#CCC1(C#N)CCCCC1. The data set is described as follows: Kinetic parameters of the nitrilase, purified AcN-F168V (parent). The note with it: other: AcN-F168V, pH 7.0, 20 mM phosphate buffer, 45° C., 6.75-40.49 mM substrate. The format is biochemical, Acidovorax facilis CCTCC NO: M 209044. The method, then:
as §1, §2, §3

By Km is commonly meant the substrate concentration at which the rate is half of its maximum. As a reminder, the kcat is the maximal rate divided by the concentration of active sites.

Turning to `N#CCC1(C#N)CCCCC1` [1-cyanocyclohexylacetonitrile], in data set [1], the Kcat amounted to 24139 s⁻¹, the Kcat/Km was found to be 341.236 M⁻¹ s⁻¹ and the Vmax is 4.78 ± 0.73 mmolmg^−1min^−1. Also, the Km in data set [1] (6.75-40.49 mM substrate) is 19.7 ± 7.4 mM.

On to “Acidovorax facilis CCTCC NO: M 209044 nitrilase AcN-F168V (SEQ ID No. 2) mutant A205C, SEQ ID No. 8 (Acidovorax facilis; A205C/F168V)”, for which, in the data set on N#CCC1(C#N)CCCCC1 [2], the Km amounted to 3.40 ± 0.78 mM, the Vmax worked out at 1630 µmol/min/mg and the turnover number (kcat) amounted to 8317 s⁻¹.

Consider “Acidovorax facilis CCTCC NO: M 209044 nitrilase AcN-F168V (SEQ ID No. 2) mutant G180D, SEQ ID No. 4 (Acidovorax facilis; F168V/G180D)”, for which, in the data set on N#CCC1(C#N)CCCCC1 [3], the Km worked out at 3.21 ± 1.41 mM, the Vmax was 1980 µmol/min/mg and the turnover number (kcat) amounted to 6624 s⁻¹.

As for “Acidovorax facilis CCTCC NO: M 209044 nitrilase AcN-F168V (SEQ ID No. 2) mutant G180F, SEQ ID No. 6 (Acidovorax facilis; F168V/G180F)”, in the data set with N#CCC1(C#N)CCCCC1 [4], the Michaelis constant (Km) amounted to 5.88 ± 1.58 mM, the Vmax came out at 2350 µmol/min/mg and the catalytic constant (kcat) was 7612 s⁻¹.

As to “Acidovorax facilis CCTCC NO: M 209044 nitrilase AcN-F168V, SEQ ID No. 2 (Acidovorax facilis; F168V)”, in the data set with N#CCC1(C#N)CCCCC1 [5], the Km is listed as 16.25 ± 5.37 mM, the Vmax worked out at 1530 µmol/min/mg and the catalytic constant (kcat) amounted to 5573 s⁻¹.

(Values after patent US12428656B2, “Nitrilase mutant and application thereof in the synthesis of 1-cyanocyclohexyl acetic acid” (priority 2020, dated 2025).)
